The values below come from US20170086465A1 (TECHNION RESEARCH AND DEVELOPMENT FOUNDATION, published 2017).

This series concerns the molecule itself. Nature of the series: cell-based or functional assay.

B1: C. elegans aff-1 fused to a C-terminal FLAG tag (AFF-1::FLAG) (other)
chain: RLRRHHRKRRFVSSNFDEFYCGESAHAQSQFEEERESNSSKVSSVHSTQFNWGLDNTICIKLQNVVHVLKYERLEQRYPIENSYTFSVPLIDTNCKCHCYGFGTNDVCNVEKYADDRNCTTSSEFPTCYTKYHPAVEPLDCPVTSIPAKACCDIKLKPRDGRMFRAVKLQQPINDMIISHSIFANNSGKMMKVLGPDEFRINLLKGKEQFELTEYHRISVQLVASSPQQQLREGMYYFPEENHNDLREGKINEITESDLDKLGWYRRVGNDWQVATSGLLLRNAHKVVIKNCKGQVHMDQFSGTKNFVLRGTQYNDTYNERRVSDNNFVRSVKVDESSREITIVHEHGTAAQVSLKTDTRPNLTKSQSLLANFTGSITLDHDGNRMLNVTFFGVKGTVHIKMYVNDRKLIATFACTAQFGTSLKDDGSRISLPSTINQAQWVCILPDEQPTKSEICKWIPYEEKAMRTPRQEQSWSKGHSPCSQAECNSLKSGVSDLFPWIMNFDYFMAHGGDFTEWLKIGIHIVIAVGLLLLLILLFTKCLVPLACCSLSIPFKNRNKKKKKKNSSDY
As for B1, the “infection of BHK-AFF-1 cells by VSVΔG-AFF-1 pseudovirus (GFP-expressing cells)” value was 600 fold.
